The source of these data is publication PMC6695400, “Diversity of oligomerization in Drosophila semaphorins suggests a mechanism of functional fine-tuning” (Nature Communications, 2019).

Data set [1] deals with T1, mouse Sema3A (residues 26–730, furin sites mutated) with C-terminal 3C-Avi-His6 tag (mouse, UniProt O08665 26-730, R551A (printed: R551, 555A) | R555A (printed: R551, 555A)).
T1 construct: Semaphorin-3A, mouse, residues 26-730, furin cleavage sites mutated (R551, 555A); also called Sema3A-His6; source: HEK293T, transient co-transfection, secreted into conditioned medium; not shown: His6, C-terminal, kept
T1 sequence (looked up): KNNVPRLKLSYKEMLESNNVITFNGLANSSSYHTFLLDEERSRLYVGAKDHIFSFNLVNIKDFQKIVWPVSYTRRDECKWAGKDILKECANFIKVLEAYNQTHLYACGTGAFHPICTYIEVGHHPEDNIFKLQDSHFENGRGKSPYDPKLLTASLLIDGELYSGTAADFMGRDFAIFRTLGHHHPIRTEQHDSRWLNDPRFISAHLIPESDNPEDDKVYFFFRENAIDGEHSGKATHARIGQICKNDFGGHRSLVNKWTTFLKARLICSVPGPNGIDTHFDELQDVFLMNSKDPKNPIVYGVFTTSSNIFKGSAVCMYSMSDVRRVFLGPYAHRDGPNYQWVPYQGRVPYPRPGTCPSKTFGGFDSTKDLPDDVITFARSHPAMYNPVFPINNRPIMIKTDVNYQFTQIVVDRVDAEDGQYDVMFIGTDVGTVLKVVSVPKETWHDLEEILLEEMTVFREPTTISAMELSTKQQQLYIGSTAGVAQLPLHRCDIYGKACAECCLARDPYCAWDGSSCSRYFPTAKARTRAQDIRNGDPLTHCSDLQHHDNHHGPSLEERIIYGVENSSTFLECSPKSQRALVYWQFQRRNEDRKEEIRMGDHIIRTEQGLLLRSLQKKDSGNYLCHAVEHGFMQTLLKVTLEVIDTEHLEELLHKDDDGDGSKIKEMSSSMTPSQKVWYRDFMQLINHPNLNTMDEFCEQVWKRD
The experiment in a line: pull-down; HEK293T co-transfected with a His6-tagged and a TwinStrep-tagged semaphorin; conditioned medium 5 days post transfection; two-step affinity chromatography (HisTrap, then StrepTactin); western blot and SDS-PAGE of flow-through and eluate. The settings on record: partners not purified.

Data set [2] concerns the target T2, Drosophila melanogaster full-length secreted semaphorin-2a (Sema2a_(full)) (Drosophila melanogaster, UniProt Q24323 26-724).
T2 construct: Semaphorin-2a, Drosophila melanogaster, residues 26D-724V; Disulfide-linked dimer in solution; source: HEK293T (37 °C), transient transfection, purified (HisTrap, SEC)
T2 sequence (looked up): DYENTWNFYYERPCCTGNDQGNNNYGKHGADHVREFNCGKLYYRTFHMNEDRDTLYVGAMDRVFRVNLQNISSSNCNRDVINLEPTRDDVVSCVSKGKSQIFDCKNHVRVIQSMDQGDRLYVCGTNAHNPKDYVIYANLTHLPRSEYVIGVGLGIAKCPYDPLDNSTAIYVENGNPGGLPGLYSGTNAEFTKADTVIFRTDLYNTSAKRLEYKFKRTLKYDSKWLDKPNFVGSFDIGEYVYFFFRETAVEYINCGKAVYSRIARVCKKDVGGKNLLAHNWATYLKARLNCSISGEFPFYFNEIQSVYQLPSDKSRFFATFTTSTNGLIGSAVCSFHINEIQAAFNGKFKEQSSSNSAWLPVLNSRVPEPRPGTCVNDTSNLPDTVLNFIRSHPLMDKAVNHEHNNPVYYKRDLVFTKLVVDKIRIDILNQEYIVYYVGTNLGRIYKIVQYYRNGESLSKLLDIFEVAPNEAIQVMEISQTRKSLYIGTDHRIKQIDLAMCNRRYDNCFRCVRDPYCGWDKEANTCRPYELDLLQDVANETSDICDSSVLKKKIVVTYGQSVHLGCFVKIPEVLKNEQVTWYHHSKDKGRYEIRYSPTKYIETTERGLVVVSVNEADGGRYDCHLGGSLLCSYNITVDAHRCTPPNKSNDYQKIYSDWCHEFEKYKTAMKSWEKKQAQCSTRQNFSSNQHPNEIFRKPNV
Put plainly: MST; plexin-mVenus kept constant, unlabelled semaphorin titrated (1:1 dilution series); 25 °C; 15 mM HEPES pH 7.4, 150 mM NaCl, 2 mM CaCl2, 0.005% Tween-20; 1 h incubation at room temperature; apparent Kd. As to conditions: both partners purified.

Data set [3] deals with the molecule itself. Put plainly: crystal structure; sitting-drop vapour diffusion at 20 °C; data at 100 K.

B1: mouse Sema3C (residues 22–711, furin sites mutated) with C-terminal TwinStrep tag (ligand, UniProt Q62181 22-711, looked up)
chain: SSQPQARVYLTFDELRETKTSEYFSLSHQQLDYRILLMDEDQDRIYVGSKDHILSLNINNISQEPLSVFWPASTIKVEECKMAGKDPTHGCGNFVRVIQTFNRTHLYVCGSGAFSPVCTYLNRGRRSEDQVFMIDSKCESGKGRCSFNPNVNTVSVMINEELFSGMYIDFMGTDAAIFRSLTKRNAVRTDQHNSKWLSEPMFVDAHVIPDGTDPNDAKVYFFFKERLTDNNRSTKQIHSMIARICPNDTGGQRSLVNKWTTFLKARLVCSVTDEDGPETHFDELEDVFLLETDNPRTTLVYGIFTTSSSVFKGSAVCVYHLSDIQTVFNGPFAHKEGPNHQLISYQGRIPYPRPGTCPGGAFTPNMRTTKDFPDDVVTFIRNHPLMYNSIYPIHRRPLIVRIGTDYKYTKIAVDRVNAADGRYHVLFLGTDRGTVQKVVVLPTNSSASGELILEELEVFKNHVPITTMKISSKKQQLYVSSNEGVSQVSLHRCHIYGTACADCCLARDPYCAWDGHSCSRFYPTGKARSRAQDVRHGNPLTQCRGFNLKAYRNAAEIVQYGVRNNSTFLECAPKSPQASIKWLLQKDKDRRKEVKLNERIIATSQGLLIRSVQDSDQGLYHCIATENSFKQTIAKINFKVLDSEMVAVVTDKWSPWTWAGSVRALPFHPKDILGAFSHSEMQLINQYCKD
notes: Semaphorin-3C, mouse, residues 22-711, furin cleavage sites mutated (R548, 552A); also called Sema3C-TwinStrep; source: HEK293T, transient co-transfection, secreted into conditioned medium; not shown: TwinStrep, C-terminal, kept
As for B1, the “stoichiometry N” value in data set [1] was 1.

B2: Drosophila melanogaster PlexB1–4-mVenus (receptor, UniProt Q9V4A7 35-730, looked up)
chain: EELPAQALSPLNDIVAQFNLPSIPVQSTASSYGNRSIGNNIESVRDSQSKNYFTHMSFDFMHNVLFAGATNKILKLNENLRVLAEAVTGPLHDSPQCHAGGCPEDIETSLVNNFNKILVVSYAHDGILIACGSIRQGACEIYSLPRFPATPQFFAVPLAANDENASTYAFVGPARYAWKEEDILYVGTTFTNVGDYRHDVPAISSRRLDDLNYAEFSIQQSIINIDVKYRDHFLVDYIYGFNSSEYAYFIIVQKKSHLADEAGYVTRLARICITDPNYDSYTEITVQCTATENNVDYNIVRDAKVTPASHKLAQKMGIKKDDHVLVTVFSPSREISNQPESKSAMCIYSIKDIEDMFIENIHLCFNGTTKDRNLGYISGTINDGRCPIVGSLGNIYNFCSVGLKISGVSPITAHALFHFDNVSVTSVTATSTTDQQHSLAFLGTNMGVIKKVLLSGQSPGEYEEIVVDAGNRILPNTMMSPKKDFLYVLSQRKITKLRIEHCSVYTNCSACLESRDPFCGWCSLEKRCTVRSTCQRDTSASRWLSLGSGQQCIEFESIIPEKIPISELSHLHLIIRTLPEPFNAKYRCVFGNSTPIDAEILENGLGCATPPLDERPLIPTNTDHILVPLSVRSSETNKDFVSRNFAFFDCSHHGNCQECLQSSWGCNWCIFDNKCVHKSLQCRNIENAVSTVGHCP
notes: Plexin B, Drosophila melanogaster, domains 1-4 of the ectodomain, residues 35E-730P; source: High Five cells (Trichoplusia ni), baculovirus (pBacPAK9, GP64 signal peptide), purified (HisTrap, SEC); not shown: mVenus, C-terminal, kept
For the molecule B2, the Kd in data set [2] stood at 25 nM.

B3: Drosophila melanogaster Sema2a1–3 (sema, PSI and Ig-like domains) (domain or fragment, UniProt Q24323 27-671, looked up)
chain: YENTWNFYYERPCCTGNDQGNNNYGKHGADHVREFNCGKLYYRTFHMNEDRDTLYVGAMDRVFRVNLQNISSSNCNRDVINLEPTRDDVVSCVSKGKSQIFDCKNHVRVIQSMDQGDRLYVCGTNAHNPKDYVIYANLTHLPRSEYVIGVGLGIAKCPYDPLDNSTAIYVENGNPGGLPGLYSGTNAEFTKADTVIFRTDLYNTSAKRLEYKFKRTLKYDSKWLDKPNFVGSFDIGEYVYFFFRETAVEYINCGKAVYSRIARVCKKDVGGKNLLAHNWATYLKARLNCSISGEFPFYFNEIQSVYQLPSDKSRFFATFTTSTNGLIGSAVCSFHINEIQAAFNGKFKEQSSSNSAWLPVLNSRVPEPRPGTCVNDTSNLPDTVLNFIRSHPLMDKAVNHEHNNPVYYKRDLVFTKLVVDKIRIDILNQEYIVYYVGTNLGRIYKIVQYYRNGESLSKLLDIFEVAPNEAIQVMEISQTRKSLYIGTDHRIKQIDLAMCNRRYDNCFRCVRDPYCGWDKEANTCRPYELDLLQDVANETSDICDSSVLKKKIVVTYGQSVHLGCFVKIPEVLKNEQVTWYHHSKDKGRYEIRYSPTKYIETTERGLVVVSVNEADGGRYDCHLGGSLLCSYNITVDAHRCTPPNK
notes: Semaphorin-2a, Drosophila melanogaster, sema-PSI-Ig, residues 27Y-671K; Disulfide-linked dimer in the crystal; source: HEK293S-GnTI- or HEK293T with kifunensine, transient transfection, purified (HisTrap, SEC)
As to B3, the binding result in data set [3] is “binds”.
